Target: Fc gamma receptor I (human) (UniProt P12314)
Assay: AlphaScreen or HTRF; AlphaLISA human FCGR binding kit (PerkinElmer), competition: donor and acceptor beads coated with unmodified IgG and FcγR-I; serial dilutions of SPGR-engineered IgG in 1X HiBlock buffer (1 mg/ml to 0.1 μg/ml); 25 °C, 90 min; signal at 615 nm

UniProt P12314, sequence (P12314 16-292): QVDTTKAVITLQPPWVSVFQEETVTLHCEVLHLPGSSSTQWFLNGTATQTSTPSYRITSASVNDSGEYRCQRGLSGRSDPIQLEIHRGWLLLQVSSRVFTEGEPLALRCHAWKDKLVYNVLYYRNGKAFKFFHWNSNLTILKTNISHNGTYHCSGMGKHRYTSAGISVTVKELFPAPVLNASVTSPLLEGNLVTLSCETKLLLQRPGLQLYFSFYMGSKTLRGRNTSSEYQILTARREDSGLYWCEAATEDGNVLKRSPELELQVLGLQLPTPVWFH

Signal reduction at 0.1 μg/ml, 60%:
SPGR-engineered human serum IgG, sample 1, (F)M3 glycans (terminating with mannose) (antibody)
SPGR-engineered human serum IgG, sample 2, bi-antennary (F)A2 glycans (terminating with GlcNAc) (antibody)
SPGR-engineered human serum IgG, sample 3, bi-antennary glycans with terminal galactose (antibody)
SPGR-engineered human serum IgG, sample 4, bi-antennary sialylated glycans (antibody)
SPGR-engineered human serum IgG, sample 5, mono-antennary glycans terminating with GlcNAc (antibody)
SPGR-engineered human serum IgG, sample 6, mono-antennary glycans (after GnT-I and GalT) (antibody)
SPGR-engineered human serum IgG, sample 7, mono-antennary glycans (after GnT-I, GalT and SialylT) (antibody)
SPGR-engineered human serum IgG, sample 8, bisecting glycans terminating with GlcNAc (antibody)
SPGR-engineered human serum IgG, sample 9, bisecting glycans (after GnT-III and GalT) (antibody)
SPGR-engineered human serum IgG, sample 10, bisecting sialylated glycans (FA2BG2S2 route) (antibody)
